Target: T1, CD20 (human) (UniProt P11836)
T1 sequence (looked up): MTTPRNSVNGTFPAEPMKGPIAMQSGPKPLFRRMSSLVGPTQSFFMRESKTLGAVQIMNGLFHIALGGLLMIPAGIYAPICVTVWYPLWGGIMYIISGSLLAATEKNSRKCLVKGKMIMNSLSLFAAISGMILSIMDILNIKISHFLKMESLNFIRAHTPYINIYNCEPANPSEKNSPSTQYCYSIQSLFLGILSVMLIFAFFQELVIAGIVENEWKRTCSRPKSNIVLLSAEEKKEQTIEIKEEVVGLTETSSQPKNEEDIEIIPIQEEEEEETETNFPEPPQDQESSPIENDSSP
Assay: cell-based or functional assay

B1: anti-CD20 Leu-16 monoclonal antibody (antibody, from another filing, V domains shown)
VH: EVQLQQSGAELVKPGASVKMSCKASGYTFTSYNMHWVKQTPGQGLEWIGAIYPGNGDTSYNQKFKGKATLTADKSSSTAYMQLSSLTSEDSADYYCARSNYYGSSYWFFDVWGAGTTVTVSS
VL: DIVLTQSPAILSASPGEKVTMTCRASSSVNYMDWYQKKPGSSPKPWIYATSNLASGVPARFSGSGSGTSYSLTISRVEAEDAATYYCQQWSFNPPTFGGGTKLEIK
Work on B1 yielded a decrease of IL-2 concentration in supernatants of Jurkat transfectants co-cultured with LCL of 60%.

Source: US6410319
